Several values for one entry are separate records, joined by “and”; a condition that tells them apart may be missing. Identical values can stand only once.
What was measured:
[1] = system: CHO-3E7; assay: Cell-ELISA on live CHO-3E7 cells; assay type: cell-based, Chinese hamster; conditions: hybridoma supernatant, OD450 nm
Experimental: Cell-ELISA. Sterile 96-well plates (Costar #3595) were pre-treated with 50 μl/well of branched polyethyleneimine (PEI, Sigma Cat #408727) at 25 μg/ml in PBS for 30 min at room temperature. PEI was removed and CHO-3E7 or hNAv1.7-CHO (ChanTest cat #CT4003) were seeded at 6×10^5 cells per well in FreeStyle F17 Expression Medium (Gibco Cat #A1383501) and incubated overnight at 37° C., 5% CO2. Microplates were blocked with Starting block (Thermofisher Cat #37538) for 30 min at room temperature, and 50 μl of hybridoma supernatants were added and incubated at 4° C. for 3 h. Plates were washed 5 times with PBS and incubated for one hour at 4° C. with 50 μl of secondary antibody HRP-conjugated F(ab′)2 goat anti-mouse IgG (H+L) (Jackson Immunoresearch #115-036-062) diluted 1/5000 in blocking buffer. After 10 washes with PBS, 50 μl of TMB substrate solution (Pierce Cat #34021) was added and further incubated for 60 min at room temperature. Twenty-five μl/well of stop solution ([…] 1M) was added and OD450 nm measurements were done using a microplate reader (Spectramax 340 PC, Molecular Devices).

[2] = target: hNav1.7 channels (Homo sapiens, UniProt Q15858, W1161R); assay: Patch-clamp whole-cell recordings in hNav1.7-HEK293 cells; assay type: cell-based
[3] = system: OD1-evoked Nav1.7-mediated spontaneous pain behaviours; assay type: in vivo, mouse; conditions: 100 μg, injected 60 minutes prior to OD1; 20 min after the injection
[4] = system: overlapping antigen-peptides derived from DIE3IR; assay: ELISA of mAbs on overlapping antigen-peptides derived from DIE3IR; assay type: binding, human; conditions: peptides coated 100-500 ng/well
Experimental: The peptides were custom-synthesized (Biomatik) and tested for antibody binding by ELISA. […] The wells were blocked with 1% BSA in TBS-T for 30 min and then incubated with 1:1000 dilution of anti-hNav1.7 mAb at room temperature (RT) for one hr. Following three TBS-T washes (3×5 min), mAb binding to peptides was detected by incubating with HRP-conjugated anti-mouse Fc antibody for 90 min at RT in TBS-T. The bound antibody was detected with SureBlue™ TMB reagent kit (KPL) by colorimetric measurement at 450 nm according to manufacturer's instructions.
To identify the epitope for mAb 3A8 on DIE3IR, seven overlapping antigen-peptides were generated (FIG. 15A) and an ELISA was performed to determine the binding between these peptides and the various mAb (FIGS. 15C to 15I).

[5] = target: T1, FC5DIE3IR (Homo sapiens, UniProt Q15858); assay: Hydrogen-Deuterium Exchange Mass Spectrometry (HDX-MS); assay type: binding; conditions: labelling 1, 10 and 60 min
T1 construct: The supernatant was collected and loaded on a 5 ml MabSelect™ SuRe™ column; made in house; host or cells: CHO-3E7 (transient, pTT5 vector), purified from supernatant

[6] = −20 mV, after antibody application (1 μM)

B1: 3A8: anti-hNav1.7 mouse monoclonal antibody, IgG2a, k; heavy chain SEQ ID NO: 12, light chain SEQ ID NO: 18 (antibody, V domains shown)
VH: QVQLQQPGAELVKPGASVKLSCKASGYTFTNYWMHWVKQRPGQGLEWIGEINPSNGRANYNEKFKSKATLTVDKSSSTAYMQLSSLTSEDSAVYYCARSPYGYYDYWGQGTTLTVSSAKTTAPSVYPLAP
VL: DVLMTQTPLSLPVSLGDQASISCRSSQSLLHSNGNTYFHWYLQKPGQSPKLLIYKVSNRFFGVPDRFSGSGSGTDFTLKISRVEAEDLGVYFCSQITHVPLTFGAGTKLELKRADAAPTVSIFPPSS
modifications: Heavy chain of the 3A8 antibody without leader sequence; Light chain of the 3A8 antibody without leader sequence
[1]; duplicate 1
  ELISA on live cells (duplicates) CHO-3E7: −0.027
[1]; duplicate 2
  ELISA on live cells (duplicates) CHO-3E7: −0.018
[2]; 1 μM
  Voltage-dependence of activation (shift V1/2 activation): −6.0±1.0 mV and −6.0 mV
  Voltage-dependence of the steady-state fast inactivation (shift V1/2 inactivation): −7.1±1.7 mV and −7.1 mV
[2]; 1 μM, single time-course recording (FIG. 6B)
  Reduction of the hNav1.7 current in the time course: approx. 13%
[2]; 1 μM, single time-course recording of the figure
  Onset time of the effect (exponential fit of the current decay, T): 176 s
[2]; example recordings, 1-3 μM
  Effect on hNav1.7 currents (in words): reduced the hNav1.7 currents in a dose dependent manner
[2]; [6]
  Fast inactivation (time constant): 0.72 ± 0.08 ms and 0.72 ms
  Time-to-peak: 0.88 ± 0.07 ms and 0.88 ms
[3]
  Time spent in pain behaviors (saline plus OD1 = 100%): 73.76%±5.38
[4]
  Peptide in which the binding motif resides / that is bound: pep #2a
[5]
  Stabilization of FC5DIE3IR in response to mAb binding (residues, differential HDX-MS): Asn121-Tyr134

Source: US11945858B2, “Antibodies and antibody fragments against HNAV1.7 channel and their use in pain and cancer indications” (NATIONAL RESEARCH COUNCIL OF CANADA, priority 2018, dated 2024)
